This note sets out measurements from paper PMC3384312 (Nucleic Acids Research, 2012).

5‑acetamidofluorescein = fluorescein label from 5-iodoacetamidofluorescein attached at Cys

Series [1] concerns the target T1, MEF2A (1-95) (UniProt Q02078 1-95).
T1 sequence: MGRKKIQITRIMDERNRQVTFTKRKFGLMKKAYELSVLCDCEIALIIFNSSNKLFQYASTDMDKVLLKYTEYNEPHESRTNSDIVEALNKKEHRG
The experiment in a line: SPR.

The series “crystal structure” concerns the molecule itself. The series is described as follows: crystal structure.
Series [2] addresses T1, MEF2A (1-95). The series is described as follows: fluorescence polarisation. (In general: Polarisation of emitted light reports the rotation of a fluorescent probe.)

B1: HDAC4 (AA 155-220) (domain or fragment)
chain: LKNKEKGKESAVASTEVKMKLQEFVLNKKKALAHRNLNHCISSDPRYWYGKTQHSSLDQSSPPQSG
Regarding B1, the binding result in the series with MEF2A (1-95) [1] was “binds”.

B2: MEF2A (1-78) (domain or fragment)
chain: MGRKKIQITRIMDERNRQVTFTKRKFGLMKKAYELSVLCDCEIALIIFNSSNKLFQYASTDMDKVLLKYTEYNEPHES
On to B2, for which the binding result in “crystal structure” is “binds”.

B3: HDAC4 fragment (AA 155-218) labeled by 5-Iodoacetamidofluorescein via Cys194 (domain or fragment, UniProt P56524 155-218, looked up)
chain: LKNKEKGKESAVASTEVKMKLQEFVLNKKKALAHRNLNHC(5‑acetamidofluorescein)ISSDPRYWYGKTQHSSLDQSSPPQ
In the case of B3, the binding result with MEF2A (1-95) [2] is “binds”.
